Laboratory results reported in patent US20220073608A1.

Assays:
[1] = target: T1, human SEMA4D, full length, on CHO-K1 cells (CHO-K1 hSEMA4D) (human) (UniProt Q92854); test: FACS, CHO-K1 hSEMA4D cells; Ab 2.67 nM
T1 sequence (looked up): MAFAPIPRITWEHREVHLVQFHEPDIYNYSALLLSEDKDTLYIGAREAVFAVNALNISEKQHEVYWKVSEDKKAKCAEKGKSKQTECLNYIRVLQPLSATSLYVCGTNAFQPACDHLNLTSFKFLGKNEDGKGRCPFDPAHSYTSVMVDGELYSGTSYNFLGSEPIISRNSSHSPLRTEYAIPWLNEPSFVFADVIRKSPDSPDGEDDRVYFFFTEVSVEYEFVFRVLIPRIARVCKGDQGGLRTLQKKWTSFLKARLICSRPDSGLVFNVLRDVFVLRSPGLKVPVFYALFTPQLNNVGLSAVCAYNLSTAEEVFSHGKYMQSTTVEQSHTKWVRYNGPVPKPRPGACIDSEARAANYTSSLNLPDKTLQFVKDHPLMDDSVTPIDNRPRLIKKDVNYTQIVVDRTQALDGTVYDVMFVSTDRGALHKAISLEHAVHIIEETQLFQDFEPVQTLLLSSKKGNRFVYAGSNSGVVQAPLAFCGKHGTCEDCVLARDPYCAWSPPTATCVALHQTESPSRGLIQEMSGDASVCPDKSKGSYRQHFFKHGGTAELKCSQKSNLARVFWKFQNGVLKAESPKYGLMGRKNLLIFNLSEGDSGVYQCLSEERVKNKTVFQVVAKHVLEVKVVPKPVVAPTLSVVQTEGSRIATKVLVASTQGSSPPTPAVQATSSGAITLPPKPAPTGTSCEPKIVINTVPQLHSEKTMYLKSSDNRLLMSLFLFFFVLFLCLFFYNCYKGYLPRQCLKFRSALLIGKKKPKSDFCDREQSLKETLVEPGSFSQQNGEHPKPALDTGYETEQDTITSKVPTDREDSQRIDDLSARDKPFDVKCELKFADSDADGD

[2] = target: monkey SEMA4D, full length, on CHO-K1 cells (CHO-K1 cSEMA4D) (monkey); test: FACS, CHO-K1 cSEMA4D cells; Ab 2.67 nM
[3] = target: mouse SEMA4D, full length, on CHO-K1 cells (CHO-K1 mSEMA4D) (mouse) (UniProt O09126); test: FACS, CHO-K1 mSEMA4D cells; Ab 2.67 nM
[4] = target: monkey SEMA4D, full length, on CHO-K1 cells (CHO-K1 cSEMA4D) (monkey); test: FACS, CHO-K1 cSEMA4D cells; Ab 0.107 nM
[5] = target: monkey SEMA4D, full length, on CHO-K1 cells (CHO-K1 cSEMA4D) (monkey); test: FACS, CHO-K1 cSEMA4D cells; Ab 0.534 nM
[6] = target: mouse SEMA4D, full length, on CHO-K1 cells (CHO-K1 mSEMA4D) (mouse) (UniProt O09126); test: FACS, CHO-K1 mSEMA4D cells; Ab 0.534 nM
[7] = target: T1, human SEMA4D, full length, on CHO-K1 cells (CHO-K1 hSEMA4D) (human); test: FACS, CHO-K1 hSEMA4D cells; Ab 0.00427 nM
[8] = target: monkey SEMA4D, full length, on CHO-K1 cells (CHO-K1 cSEMA4D) (monkey); test: FACS, CHO-K1 cSEMA4D cells; Ab 0.00427 nM
[9] = target: monkey SEMA4D, full length, on CHO-K1 cells (CHO-K1 cSEMA4D) (monkey); test: FACS, CHO-K1 cSEMA4D cells; Ab 0.000853 nM
[10] = target: mouse SEMA4D, full length, on CHO-K1 cells (CHO-K1 mSEMA4D) (mouse) (UniProt O09126); test: FACS, CHO-K1 mSEMA4D cells; Ab 0.000853 nM
[11] = target: T2, biotinylated hSEMA4D ECD-His (human) (UniProt Q92854); test: FACS, blocking of biotinylated hSEMA4D ECD-His binding to 293F hPlexin B1 cells; Ab 333 nM
T2 sequence (chain, biotinylated with Biotin-X-X-NHS at a molar ratio of 8,1; sites not stated): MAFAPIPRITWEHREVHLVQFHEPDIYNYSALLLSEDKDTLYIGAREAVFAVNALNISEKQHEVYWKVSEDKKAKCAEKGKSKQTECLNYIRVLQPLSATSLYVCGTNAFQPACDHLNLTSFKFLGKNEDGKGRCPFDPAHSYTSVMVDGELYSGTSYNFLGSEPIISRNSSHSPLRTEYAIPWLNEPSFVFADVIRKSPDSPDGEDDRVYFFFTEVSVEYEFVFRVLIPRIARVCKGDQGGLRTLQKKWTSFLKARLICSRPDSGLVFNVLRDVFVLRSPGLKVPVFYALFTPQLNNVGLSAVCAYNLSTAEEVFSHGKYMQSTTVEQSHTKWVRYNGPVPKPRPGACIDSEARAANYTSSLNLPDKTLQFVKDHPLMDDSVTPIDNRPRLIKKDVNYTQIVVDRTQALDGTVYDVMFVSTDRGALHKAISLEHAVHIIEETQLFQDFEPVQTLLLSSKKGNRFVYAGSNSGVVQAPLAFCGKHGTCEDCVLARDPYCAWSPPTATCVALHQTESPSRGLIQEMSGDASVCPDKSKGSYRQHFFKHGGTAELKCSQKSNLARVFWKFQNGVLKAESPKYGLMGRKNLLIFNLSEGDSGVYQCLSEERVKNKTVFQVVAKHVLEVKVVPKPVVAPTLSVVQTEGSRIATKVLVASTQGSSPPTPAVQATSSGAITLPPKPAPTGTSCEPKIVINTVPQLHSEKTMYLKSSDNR

[12] = target: T2, biotinylated hSEMA4D ECD-His (human); test: FACS, blocking of biotinylated hSEMA4D ECD-His binding to 293F hPlexin B1 cells; Ab 13.3 nM
[13] = target: T2, biotinylated hSEMA4D ECD-His (human); test: FACS, blocking of biotinylated hSEMA4D ECD-His binding to 293F hPlexin B1 cells; Ab 2.67 nM
[14] = target: T2, biotinylated hSEMA4D ECD-His (human); test: FACS, blocking of biotinylated hSEMA4D ECD-His binding to 293F hPlexin B1 cells; Ab 0.107 nM
[15] = target: T2, biotinylated hSEMA4D ECD-His (human); test: FACS, blocking of biotinylated hSEMA4D ECD-His binding to 293F hPlexin B1 cells; Ab 0.0213 nM

MFI [1]	MFI [2]	MFI [3]	MFI [4]	MFI [5]	MFI [6]	MFI [7]	MFI [8]	MFI [9]	MFI [10]	MFI (residual ligand binding) [11]	MFI (residual ligand binding) [12]	MFI (residual ligand binding) [13]	MFI (residual ligand binding) [14]	MFI (residual ligand binding) [15]	Substance
35.9	33.3	23.9	31.6	32.1	23.7	37.4	31.6	31.6	25	307	331	338	364	359	Human IgG control (antibody)
35.6	37.8	30.4	25.4	24.9	29.5	35.5	22.5	22.9	29.8	464	474	470	473	468	Mouse IgG control (antibody)
